From US20120283184A1 (published 2012)

Molecular target: T1, human vascular endothelial growth factor receptor-2 Fc chimera (KDR-Fc) (human, UniProt P35968 20-764)
T1 construct: range 1-764; also called human VEGFR-2; not shown: human IgG1 Fc
Experiment: radioactive equilibrium binding, 1 nM KDR-Fc, % of input
Method: To prepare ³⁵S-labeled binding proteins for analysis, mRNA was prepared as described above for RNA-protein fusion production but the linker ligation step was omitted. The mRNA was expressed using rabbit reticulocyte lysate translation kit (Ambion) in the presence of ³⁵S-labeled Met at 30° C. for 1 hour. Expressed protein was purified on M2-agarose Flag beads (Sigma) as described above. This procedure produced the encoded protein without the nucleic acid tail. In a direct binding assay, VEGF-R2-Fc fusions in concentrations ranging from 0 to 200 nM were added to a constant concentration of the purified protein (0.2 or 0.5 nM) and incubated at 30° C. for 1 hour in buffer B. The receptor-binder complexes were captured using Protein A magnetic beads for another 10 minutes at room temperature using a Kingfisher™ The beads were washed with six reaction volumes of buffer B. The protein was eluted from the beads with 100 μL of 0.1 M KOH. 50 μL of the reaction mixture and elution were dried onto a LumaPlate-96 (Packard) and the amount of ³⁵S on the plate was measured using a TopCount NXT instrument (Packard). The amount of fibronectin-based scaffold protein bound to the target was estimated as a percent of radioactivity eluted from Protein A magnetic beads compare to radioactivity in the reaction mixture. Nonspecific binding of fibronectin-based scaffold proteins to the beads was determined by measuring binding in the absence of KDR-Fc and represented less than 1-2% of the input. Specific binding was obtained through subtraction of nonspecific binding from total binding. Data was analyzed using the GraphPad Prizm software (GraphPad Software, Inc, San Diego, Calif.), fitted using a one site, non-linear binding equation.

T1 sequence (P35968 20-764 limits assumed, change not shown, form in doubt): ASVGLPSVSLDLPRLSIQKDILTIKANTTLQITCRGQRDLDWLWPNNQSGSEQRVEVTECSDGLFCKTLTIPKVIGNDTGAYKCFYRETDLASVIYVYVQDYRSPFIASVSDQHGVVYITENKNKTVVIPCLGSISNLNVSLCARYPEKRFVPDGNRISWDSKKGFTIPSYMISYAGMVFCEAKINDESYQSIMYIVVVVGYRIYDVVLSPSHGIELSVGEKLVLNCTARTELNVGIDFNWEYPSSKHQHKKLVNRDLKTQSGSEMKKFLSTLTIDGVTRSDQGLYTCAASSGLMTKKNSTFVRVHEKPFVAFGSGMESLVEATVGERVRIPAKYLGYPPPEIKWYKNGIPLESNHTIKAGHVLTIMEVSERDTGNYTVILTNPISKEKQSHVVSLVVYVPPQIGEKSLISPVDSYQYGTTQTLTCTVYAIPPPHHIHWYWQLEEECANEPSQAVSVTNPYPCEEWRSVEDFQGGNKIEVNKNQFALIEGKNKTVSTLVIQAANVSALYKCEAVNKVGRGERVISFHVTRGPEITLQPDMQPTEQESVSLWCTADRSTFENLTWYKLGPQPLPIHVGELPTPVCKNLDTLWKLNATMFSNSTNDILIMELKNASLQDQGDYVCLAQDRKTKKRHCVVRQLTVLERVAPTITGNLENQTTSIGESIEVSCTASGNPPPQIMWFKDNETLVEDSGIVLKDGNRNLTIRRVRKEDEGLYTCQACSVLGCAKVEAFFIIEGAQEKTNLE

Binder | Binding to 1 nM KDR, %
3′D8 PR4 (designed binder) EVVAATPTSLLISWRHPHFPTRYYRITYGETGGNSPVQEFTVPLQPPTATISGLKPGVDYTITVYAVTAGPNDHQLFTPISINYRT | 27%
3′E9 PR4 (designed binder) EVVAATPTSLLISWRHPHFPTRYYRITYGETGGNSPVQEFTVPLQPPTATISGLKPGVDYTITVYAVTVEQDGHVLYIPISINYRT | 44%
3′F6 PR4 (designed binder) EVVAATPTSLLISWRHPHFPTRYYRITYGETGGNSPVQEFTVPLQPPTATISGLKPGVDYTITVYAVTIEQSGLQLMTPISINYRT | 24%
3′E1 PR4 (designed binder) EVVAATPTSLLISWRHPHFPTRYYRITYGETGGNSPVQEFTVPLQPPTATISGLKPGVDYTITVYAVTVAPNGHELFTPISINYRT | 32%
3′E3 PR4 (designed binder) EVVAATPTSLLISWRHPHFPTRYYRITYGETGGNSPVQEFTVPLQPPTATISGLKPGVDYTITVYAVTMAQYGRELLTPISINYRT | 41%
3′F3 PR4 (designed binder) EVVAATPTSLLISWRHPHFPTRYYRITYGETGGNSPVQEFTVPLQPPTATISGLKPGVDYTITVYAVTLGHNDRELLTPISINYRT | 37%
3′F9 PR4 (designed binder) EVVAATPTSLLISWRHPHFPTRYYRITYGETGGNSPVQEFTVPLQPPTATISGLKPGVDYTITVYAVTLGPNDRELMTPISINYRT | 18%
3′D9 PR4 (designed binder) EVVAATPTSLLISWRHPHFPTRYYRITYGETGGNSPVQEFTVPLQPPTATISGLKPGVDYTITVYAVTGYYNDRELLTPISINYRT | 30%
3′G1 PR4 (designed binder) EVVAATPTSLLISWRHPHFPTRYYRITYGETGGNSPVQEFTVPLQPPTATISGLKPGVDYTITVYAVTLALNGHELFTPISINYRT | 19%
3′F1 PR4 (designed binder) EVVAATPTSLLISWRHPHFPTRYYRITYGETGGNSPVQEFTVPLQPPTATISGLKPGVDYTITVYAVTVAQDGHFLYTPISINYRT | 31%
3′E11 PR4 (designed binder) EVVAATPTSLLISWRHPHFPTRYYRITYGETGGNSPVQEFTVPLQPPTATISGLKPGVDYTITVYAVTVGPHDRELLTPISINYRT | 17%
3′F12 PR4 (designed binder) EVVAATPTSLLISWRHPHFPTRYYRITYGETGGNSPVQEFTVPLQPPTATISGLKPGVDYTITVYAVTLSQTDHELLTPISINYRT | 17%
3′E5 PR4 (designed binder) EVVAATPTSLLISWRHPHFPTRYYRITYGETGGNSPVQEFTVPLQPPTATISGLKPGVDYTITVYAVTVAWDGRELFTPISINYRT | 23%
3′E10 PR4 (designed binder) EVVAATPTSLLISWRHPHFPTRYYRITYGETGGNSPVQEFTVPLQPPTATISGLKPGVDYTITVYAVTAGHKDQELLTPISINYRT | 21%
3′F2 PR4 (designed binder) EVVAATPTSLLISWRHPHFPTRYYRITYGETGGNSPVQEFTVPLQPPTATISGLKPGVDYTITVYAVTLGKNDHELLTPISINYRT | 29%
